From patent US20190352367A1 (CLEVELAND CLINIC FOUNDATION, published 2019)

B1: Focal adhesion kinase (FAK), endogenous in breast cell lysates (enzyme)
chain: AAAYLDPNLNHTPNSSTKTHLGTGMERSPGAMERVLKVFHYFESNSEPTTWASIIRHGDATDVRGIIQKIVDSHKVKHVACYGFRLSHLRSEEVHWLHVDMGVSSVREKYELAHPPEEWKYELRIRYLPKGFLNQFTEDKPTLNFFYQQVKSDYMLEIADQVDQEIALKLGCLEIRRSYWEMRGNALEKKSNYEVLEKDVGLKRFFPKSLLDSVKAKTLRKLIQQTFRQFANLNREESILKFFEILSPVYRFDKECFKCALGSSWIISVELAIGPEEGISYLTDKGCNPTHLADFTQVQTIQYSNSEDKDRKGMLQLKIAGAPEPLTVTAPSLTIAENMADLIDGYCRLVNGTSQSFIIRPQKEGERALPSIPKLANSEKQGMRTHAVSVSETDDYAEIIDEEDTYTMPSTRDYEIQRERIELGRCIGEGQFGDVHQGIYMSPENPALAVAIKTCKNCTSDSVREKFLQEALTMRQFDHPHIVKLIGVITENPVWIIMELCTLGELRSFLQVRKYSLDLASLILYAYQLSTALAYLESKRFVHRDIAARNVLVSSNDCVKLGDFGLSRYMEDSTYYKASKGKLPIKWMAPESINFRRFTSASDVWMFGVCMWEILMHGVKPFQGVKNNDVIGRIENGERLPMPPNCPPTLYSLMTKCWAYDPSRRPRFTELKAQLSTILEEEKAQQEERMRMESRRQATVSWDSGGSDEAPPKPSRPGYPSPRSSEGFYPSPQHMVQTNHYQVSGYPGSHGITAMAGSIYPGQASLLDQTDSWNHRPQEIAMWQPNVEDSTVLDLRGIGQVLPTHLMEERLIRQQQEMEEDQRWLEKEERFLKPDVRLSRGSIDREDGSLQGPIGNQHIYQPVGKPDPAAPPKKPPRPGAPGHLGSLASLSSPADSYNEGVKLQPQEISPPPTANLDRSNDKVYENVTGLVKAVIEMSSKIQPAPPEEYVPMVKEVGLALRTLLATVDETIPLLPASTHREIEMAQKLLNSDLGELINKMKLAQQYVMTSLQQEYKKQMLTAAHALAVDAKNLLDVIDQARLKMLGQTRPH
notes: Protein from cell lysates in co-immunoprecipitation; also called total FAK

What was measured:
[1] = molecular target: T1, Focal Adhesion Kinase (FAK), SPR ligand (UniProt Q05397 1-1052, limits assumed); experiment: SPR, peptide as analyte, FAK as ligand
T1 construct: the FAK preparation is not described

[2] = molecular target: T2, Nanog transcription factor (NANOG), SPR ligand (UniProt Q9H9S0 1-305, limits assumed); experiment: SPR, peptide as analyte, NANOG as ligand
T2 construct: the NANOG preparation is not described
T2 sequence (Q9H9S0 whole entry): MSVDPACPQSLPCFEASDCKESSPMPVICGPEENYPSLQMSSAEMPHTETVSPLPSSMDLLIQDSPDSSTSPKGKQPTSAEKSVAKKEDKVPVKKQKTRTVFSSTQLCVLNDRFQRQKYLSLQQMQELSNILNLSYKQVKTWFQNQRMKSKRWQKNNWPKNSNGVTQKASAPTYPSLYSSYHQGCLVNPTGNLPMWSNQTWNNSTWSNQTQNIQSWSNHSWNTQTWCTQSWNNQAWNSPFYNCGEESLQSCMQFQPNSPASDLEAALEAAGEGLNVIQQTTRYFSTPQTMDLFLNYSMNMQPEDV

[3] = molecular target: Connexin 26 (Cx26), endogenous or overexpressed in breast cell lysates (UniProt P29033 1-226); experiment: reciprocal co-immunoprecipitation (anti-Cx26, anti-FAK) from bulk MCF7 and MCF10A lysates, western blot; non-immune IgG as control

Row | Binder | Kd [1] [µM] | Kd [2] [µM] | binding result [3]
1 | RYCSGKSKKPV (also called cytoplasmic tail of Cx26) [Cx26 blocking peptide 5 (C-terminus)] | 14.9 | 0.17 | –
2 | B1 | – | – | binds
